These results are taken from paper PMC11464762, “AXIN1 boosts antiviral response through IRF3 stabilization and induced phase separation” (Signal Transduction and Targeted Therapy, 2024).

One may read the EC50 as the concentration giving half of the maximal effect.

The experiment addresses T1, GST-IRF3-IR (GST-tagged IRF3 IR domain) (GST carrier left out. Limits are not printed: the paired constructs IRF3-DP and IRF3-IR are read as DBD + proline-rich region and IAD + C-terminal regulatory (response) region. The IR start at about r).
T1 chain: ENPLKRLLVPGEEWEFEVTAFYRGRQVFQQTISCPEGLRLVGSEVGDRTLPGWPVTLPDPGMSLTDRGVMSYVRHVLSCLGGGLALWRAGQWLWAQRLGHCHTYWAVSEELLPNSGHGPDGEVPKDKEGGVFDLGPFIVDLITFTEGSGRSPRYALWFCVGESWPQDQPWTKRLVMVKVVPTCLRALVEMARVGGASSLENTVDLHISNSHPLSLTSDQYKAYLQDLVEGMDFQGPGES
The experiment in a line: ELISA; cell-free; purified GST-IRF3-IR and His-AXIN1-RGS (n = 3); which one was coated is not told. Particulars: both partners purified. A general note: In an ELISA, binding on a coated surface is turned into a signal by an enzyme label.

B1: His-AXIN1-RGS (His-tagged AXIN1 RGS domain) (domain or fragment, UniProt O15169 88-211, looked up)
chain: SLHSLLDDQDGISLFRTFLKQEGCADLLDFWFACTGFRKLEPCDSNEEKRLKLARAIYRKYILDNNGIVSRQTKPATKSFIKGCIMKQLIDPAMFDQAQTEIQATMEENTYPSFLKSDIYLEYT
notes: RGS domain of AXIN1; source: purified
As to B1, the EC50 was 1.72 nM.
